The values that follow come from patent US7041498 (SALK INSTITUTE FOR BIOLOGICAL STUDIES, dated 2006).

B1: VP16 transactivation domain linked to the LBD of VDR (VP-VDR92-427) (other)
chain: EFILTDEEVQRKREMILKRKEEEALKDSLRPKLSEEQQRIIAILLDAHHKTYDPTYSDFCQFRPPVRVNDGGGSHPSRPNSRHTPSFSGDSSSSCSDHCITSSDMMDSSSFSNLDLSEEDSDDPSVTLELSQLSMLPHLADLVSYSIQKVIGFAKMIPGFRDLTSEDQIVLLKSSAIEVIMLRSNESFTMDDMSWTCGNQDYKYRVSDVTKAGHSLELIEPLIKFQVGLKKLNLHEEEHVLLMAICIVSPDRPGVQDAALIEAIQDRLSNTLQTYIRCRHPPPGSHLLYAKMIQKLADLRSLNEEHSKQYRCLSFQPECSMKLTPLVLEVFGNEIS
notes: range 92-427
B2: VP16 transactivation domain linked to the LBD of mouse PPARα (VP-PPAR155-468) (other)
chain: YCRFHKCLSVGMSHNAIRFGRMPRSEKAKLKAEILTCEHDLKDSETADLKSLGKRIHEAYLKNFNMNKVKARVILAGKTSNNPPFVIHDMETLCMAEKTLVAKMVANGVEDKEAEVRFFHCCQCMSVETVTELTEFAKAIPGFANLDLNDQVTLLKYGVYEAIFTMLSSLMNKDGMLIAYGNGFITREFLKNLRKPFCDIMEPKFDFAMKFNALELDDSDISLFVAAIICCGDRPGLLNIGYIEKLQEGIVHVLKLHLQSNHPDDTFLFPKLLQKMVDLRQLVTEHAQLVQVIKKTESDAALHPLLQEIYRDMY
notes: range 155-468; Two-hybrid prey expressed in CV-1 cells
B3: VP16 transactivation domain linked to the LBD of RARα (VP-RAR156-462) (other)
chain: ESVRNDRNKKKKEVPKPECSESYTLTPEVGELIEKVRKAHQETFPALCQLGKYTTNNSSEQRVSLDIDLWDKFSELSTKCIIKTVEFAKQLPGFTTLTIADQITLLKAACLDILILRICTRYTPEQDTMTFSDGLTLNRTQMHNAGFGPLTDLVFAFANQLLPLEMDDAETGLLSAICLICGDRQDLEQPDRVDMLQEPLLEALKVYVRKRRPSRPHMFPKMLMKITDLRSISAKGAERVITLKMEIPGSMPPLIQEMLENSEGLDTLSGQPGGGGRDGGGLAPPPGSCSPSLSPSSNRSSPATHSP
notes: range 156-462

This test concerns the target T1, GAL4 linked to the FAR ligand binding domain (GAL4-FAR184-469) (yeast; rat, UniProt P04386 1-147).
T1 construct: range 1-147; Two-hybrid bait expressed in CV-1 cells from a CMV promoter vector; also called GAL4-FAR chimera; FAR LBD
Briefly: mammalian two-hybrid in CV-1 cells, GAL4 UAS luciferase reporter.
In the case of B1, the binding result is given as “no binding”.
Under B2 stands “no binding”; under B3, “no binding”.
